Tests used:
[1] = target: T1, FcγRIIb, extracellular domain with C-terminal His tag (human, UniProt P31994 43-217); experiment: SPR (Biacore), relative binding vs GpH7-A5/GpH7-B3/GpL16-k0
T1 construct: extracellular domain; also called FcgRIIb; 2b; not shown: His tag at the C terminus
T1 sequence (looked up): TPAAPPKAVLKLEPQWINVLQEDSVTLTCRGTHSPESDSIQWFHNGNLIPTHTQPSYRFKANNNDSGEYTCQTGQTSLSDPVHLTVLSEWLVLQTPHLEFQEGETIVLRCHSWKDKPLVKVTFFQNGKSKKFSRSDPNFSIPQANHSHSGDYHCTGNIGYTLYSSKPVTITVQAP

[2] = target: T2, FcγRIIa H (FcγRIIa, allotype with His at position 131), extracellular domain with C-terminal His tag (human, UniProt P12318 34-217); experiment: as above
T2 construct: extracellular domain; also called FcgRIIa H; 2aH; not shown: His tag at the C terminus
T2 sequence (looked up): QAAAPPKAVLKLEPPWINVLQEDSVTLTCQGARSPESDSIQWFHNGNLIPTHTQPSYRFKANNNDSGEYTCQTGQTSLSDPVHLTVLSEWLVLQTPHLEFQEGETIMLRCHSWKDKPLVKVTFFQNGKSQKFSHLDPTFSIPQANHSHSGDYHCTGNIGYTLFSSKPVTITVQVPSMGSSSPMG

[3] = target: T2, FcγRIIa H (FcγRIIa, allotype with His …); experiment: SPR (Biacore); He/Con_2aH divided by He/Con_2b (FcγRIIb)
[4] = target: T3, FcγRIIa H (human FcγRIIa, allotype H131, extracellular domain with C-terminal His tag) (human, UniProt P12318 34-217); experiment: SPR (Biacore T100), antibody captured on antigen-peptide chip, FcγRIIa H as analyte; relative binding
T3 construct: extracellular domain; Soluble extracellular domain expressed in FreeStyle293 cells; used as analyte in Biacore; also called FcgRIIa H; FcγRIIa type H; not shown: His tag attached to the C terminus
T3 sequence (looked up): T2 sequence (looked up)
Method: Analysis of interaction between objective antibody and the FcγR was carried out using Biacore T100 (GE Healthcare). HBS-EP+ (GE Healthcare) was used as the running buffer, and the measurement temperature was set to 25° C. Chips produced by immobilizing the antigen peptide by the amine coupling method to a Series S Sencor Chip CM5 (GE Healthcare), or alternatively, chips produced by allowing preliminarily biotinylated antigen peptides to interact with and immobilize onto a Series S Sensor Chip SA (certified) (GE Healthcare) were used. Antibodies of interest were captured onto an antigen peptide-immobilized chip, and allowed to interact to each FcγR diluted with running buffer. To regenerate and repeatedly use the chip, the antibodies captured on the chip were washed off by reacting 10 mM glycine-HCl, pH 1.5.

B1: GpH7-A5/GpH7-B3 variant N325_01G/GpL16-k0 (antibody, human IgG1, kappa)
heavy 1: not shown
heavy 2: not shown
light: DIVMTQSPLSLPVTPGEPASISCQASESLVHSNRNTYLHWYLQKPGQSPQLLIYKVSNRFSGVPDRFSGSGSGTDFTLKISRVEAEDVGVYYCSQNTHVPPTFGQGTKVEIERTVAAPSVFIFPPSDEQLKSGTASVVCLLNNFYPREAKVQWKVDNALQSGNSQESVTEQDSKDSTYSLSSTLTLSKADYEKHKVYACEVTHQGLSSPVTKSFNRGEC
notes: Heterodimerized anti-glypican-3 IgG1; mutation in one H chain only; also called He Ab
- He/Con_2b [1]: 101 % of HeCon Ab (=100)
- He/Con_2aH [2]: 56.8 % of HeCon Ab (=100)
- He_2aH/2b (IIaH/IIb) [3]: 0.56 ratio

B2: GpH7-A5/GpH7-B3 variant T335_02A/GpL16-k0 (heterodimerized antibody, He Ab) (antibody, human IgG1, kappa)
heavy 1: not shown
heavy 2: not shown
light: B1 light
notes: Anti-glypican-3 IgG1 heterodimer (D356K/H435R chain GpH7-A5 with K439E chain GpH7-B3 variant); the alteration stands in one H chain only; EU numbering; also called T335_02A He Ab; T335A in one H chain
- He/Con_2aH [4]: 101 relative binding activity (control heterodimerized antibody GpH7-A5/GpH7-B3/GpL16-k0 = 100)

B3: GpH7-B3 variant T335_02A/GpL16-k0 (homodimerized antibody, Ho Ab) (antibody, human IgG1, kappa)
heavy: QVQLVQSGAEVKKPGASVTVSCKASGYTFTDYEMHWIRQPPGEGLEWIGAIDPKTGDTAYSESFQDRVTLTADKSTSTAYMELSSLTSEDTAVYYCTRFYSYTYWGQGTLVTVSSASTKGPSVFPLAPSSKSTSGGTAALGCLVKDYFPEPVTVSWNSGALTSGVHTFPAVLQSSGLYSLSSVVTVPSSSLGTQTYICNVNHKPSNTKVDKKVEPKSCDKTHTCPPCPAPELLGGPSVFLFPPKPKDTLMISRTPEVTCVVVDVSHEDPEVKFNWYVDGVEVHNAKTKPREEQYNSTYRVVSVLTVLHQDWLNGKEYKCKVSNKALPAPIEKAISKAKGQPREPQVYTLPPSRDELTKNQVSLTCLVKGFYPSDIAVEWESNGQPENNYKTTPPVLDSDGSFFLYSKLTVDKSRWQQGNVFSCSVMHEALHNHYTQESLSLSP
light: B1 light
notes: Anti-glypican-3 IgG1 (G1d with K439E); the alteration stands in both H chains; also called T335_02A Ho Ab; T335A in both H chains
- Ho/Con_2aH [4]: 103 relative binding activity (control homodimerized antibody GpH7-B3/GpL16-k0 = 100)

B4: GpH7-A5/GpH7-B3 variant K326_15Y/GpL16-k0 (antibody, human IgG1, kappa)
heavy 1: not shown
heavy 2: not shown
light: B1 light
notes: as for B1
- He/Con_2b [1]: 159 % of HeCon Ab (=100)
- He/Con_2aH [2]: 98.3 % of HeCon Ab (=100)
- He_2aH/2b (IIaH/IIb) [3]: 0.62 ratio

B5: GpH7-A5/GpH7-B3 variant N325_04F/GpL16-k0 (antibody, human IgG1, kappa)
heavy 1: not shown
heavy 2: not shown
light: B1 light
notes: as for B1
- He/Con_2b [1]: 143 % of HeCon Ab (=100)
- He/Con_2aH [2]: 33.4 % of HeCon Ab (=100)
- He_2aH/2b (IIaH/IIb) [3]: 0.23 ratio

B6: GpH7-A5/GpH7-B3 variant T335_06M/GpL16-k0 (heterodimerized antibody, He Ab) (antibody, human IgG1, kappa)
heavy 1: not shown
heavy 2: not shown
light: B1 light
notes: Anti-glypican-3 IgG1 heterodimer; the alteration stands in one H chain only; EU numbering; also called T335_06M He Ab; T335M in one H chain
- He/Con_2aH [4]: 103 relative binding activity (control heterodimerized antibody GpH7-A5/GpH7-B3/GpL16-k0 = 100)

B7: GpH7-A5/GpH7-B3 variant T335_04F/GpL16-k0 (heterodimerized antibody, He Ab) (antibody, human IgG1, kappa)
heavy 1: not shown
heavy 2: not shown
light: B1 light
notes: Anti-glypican-3 IgG1 heterodimer; the alteration stands in one H chain only; EU numbering; also called T335_04F He Ab; T335F in one H chain
- He/Con_2aH [4]: 103 relative binding activity (control heterodimerized antibody GpH7-A5/GpH7-B3/GpL16-k0 = 100)

B8: GpH7-B3 variant T335_08L/GpL16-k0 (homodimerized antibody, Ho Ab) (antibody, human IgG1, kappa)
heavy: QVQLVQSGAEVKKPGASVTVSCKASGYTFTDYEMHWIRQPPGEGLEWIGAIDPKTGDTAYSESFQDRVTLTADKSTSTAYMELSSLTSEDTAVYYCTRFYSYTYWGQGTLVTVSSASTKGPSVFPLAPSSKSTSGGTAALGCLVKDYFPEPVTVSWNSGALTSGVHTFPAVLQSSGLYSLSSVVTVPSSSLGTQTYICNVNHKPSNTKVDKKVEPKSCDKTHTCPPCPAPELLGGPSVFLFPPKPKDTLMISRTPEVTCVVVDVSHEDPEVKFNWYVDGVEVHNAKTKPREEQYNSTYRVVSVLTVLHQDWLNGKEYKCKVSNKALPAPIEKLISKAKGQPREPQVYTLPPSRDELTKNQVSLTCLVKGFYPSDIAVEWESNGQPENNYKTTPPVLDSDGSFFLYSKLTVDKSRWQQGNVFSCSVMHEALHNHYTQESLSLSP
light: B1 light
notes: Anti-glypican-3 IgG1 (G1d with K439E); the alteration stands in both H chains; EU numbering; also called T335_08L Ho Ab; T335L in both H chains
- Ho/Con_2aH [4]: 106 relative binding activity (control homodimerized antibody GpH7-B3/GpL16-k0 = 100)

B9: GpH7-A5/GpH7-B3 variant T335_05P/GpL16-k0 (heterodimerized antibody, He Ab) (antibody, human IgG1, kappa)
heavy 1: not shown
heavy 2: not shown
light: B1 light
notes: Anti-glypican-3 IgG1 heterodimer; the alteration stands in one H chain only; EU numbering; also called T335_05P He Ab; T335P in one H chain
- He/Con_2aH [4]: 108 relative binding activity (control heterodimerized antibody GpH7-A5/GpH7-B3/GpL16-k0 = 100)

B10: GpH7-B3 variant Y300_07I/GpL16-k0 (homodimerized antibody, Ho Ab) (antibody, human IgG1, kappa)
heavy: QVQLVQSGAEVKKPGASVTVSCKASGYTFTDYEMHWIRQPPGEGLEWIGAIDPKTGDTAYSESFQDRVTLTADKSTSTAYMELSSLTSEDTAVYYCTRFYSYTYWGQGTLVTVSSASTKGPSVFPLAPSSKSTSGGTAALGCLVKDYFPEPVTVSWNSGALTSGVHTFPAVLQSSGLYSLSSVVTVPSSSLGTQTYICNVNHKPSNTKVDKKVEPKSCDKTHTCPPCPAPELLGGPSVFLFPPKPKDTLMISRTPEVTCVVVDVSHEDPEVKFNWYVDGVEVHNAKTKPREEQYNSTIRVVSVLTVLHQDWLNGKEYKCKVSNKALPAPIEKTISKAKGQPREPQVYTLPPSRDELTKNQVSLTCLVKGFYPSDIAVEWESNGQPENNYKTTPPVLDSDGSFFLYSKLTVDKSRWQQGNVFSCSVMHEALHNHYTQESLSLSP
light: B1 light
notes: Anti-glypican-3 IgG1 (G1d with K439E); the alteration stands in both H chains; EU numbering; also called Y300_07I Ho Ab; Y300I in both H chains
- Ho/Con_2aH [4]: 122 relative binding activity (control homodimerized antibody GpH7-B3/GpL16-k0 = 100)

B11: GpH7-A5/GpH7-B3 variant K326_06M/GpL16-k0 (antibody, human IgG1, kappa)
heavy 1: not shown
heavy 2: not shown
light: B1 light
notes: as for B1
- He/Con_2b [1]: 165 % of HeCon Ab (=100)
- He/Con_2aH [2]: 103 % of HeCon Ab (=100)
- He_2aH/2b (IIaH/IIb) [3]: 0.63 ratio

B12: GpH7-B3 variant T335_09D/GpL16-k0 (homodimerized antibody, Ho Ab) (antibody, human IgG1, kappa)
heavy: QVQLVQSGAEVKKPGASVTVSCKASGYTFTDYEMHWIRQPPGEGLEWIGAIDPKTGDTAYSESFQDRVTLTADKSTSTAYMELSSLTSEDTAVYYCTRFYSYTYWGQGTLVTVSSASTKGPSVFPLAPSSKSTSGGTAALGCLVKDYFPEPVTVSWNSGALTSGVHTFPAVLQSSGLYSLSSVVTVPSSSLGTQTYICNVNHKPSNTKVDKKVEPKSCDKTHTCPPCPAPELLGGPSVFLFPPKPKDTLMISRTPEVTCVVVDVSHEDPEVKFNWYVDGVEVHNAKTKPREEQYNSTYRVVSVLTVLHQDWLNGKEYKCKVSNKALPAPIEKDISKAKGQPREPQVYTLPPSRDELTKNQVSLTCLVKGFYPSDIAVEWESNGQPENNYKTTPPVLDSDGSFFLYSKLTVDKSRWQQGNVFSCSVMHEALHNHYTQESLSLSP
light: B1 light
notes: Anti-glypican-3 IgG1 (G1d with K439E); the alteration stands in both H chains; EU numbering; also called T335_09D Ho Ab; T335D in both H chains
- Ho/Con_2aH [4]: 110 relative binding activity (control homodimerized antibody GpH7-B3/GpL16-k0 = 100)

B13: GpH7-A5/GpH7-B3 variant Y300_07I/GpL16-k0 (heterodimerized antibody, He Ab) (antibody, human IgG1, kappa)
heavy 1: not shown
heavy 2: not shown
light: B1 light
notes: Anti-glypican-3 IgG1 heterodimer; the alteration stands in one H chain only; EU numbering; also called Y300_07I He Ab; Y300I in one H chain
- He/Con_2aH [4]: 108 relative binding activity (control heterodimerized antibody GpH7-A5/GpH7-B3/GpL16-k0 = 100)

B14: GpH7-A5/GpH7-B3 variant K326_19Q/GpL16-k0 (antibody, human IgG1, kappa)
heavy 1: not shown
heavy 2: not shown
light: B1 light
notes: as for B1
- He/Con_2b [1]: 139 % of HeCon Ab (=100)
- He/Con_2aH [2]: 101 % of HeCon Ab (=100)
- He_2aH/2b (IIaH/IIb) [3]: 0.73 ratio

B15: GpH7-A5/GpH7-B3 variant N325_08L/GpL16-k0 (antibody, human IgG1, kappa)
heavy 1: not shown
heavy 2: not shown
light: B1 light
notes: as for B1
- He/Con_2b [1]: 197 % of HeCon Ab (=100)
- He/Con_2aH [2]: 52 % of HeCon Ab (=100)
- He_2aH/2b (IIaH/IIb) [3]: 0.26 ratio

B16: GpH7-B3 variant Y300_06M/GpL16-k0 (homodimerized antibody, Ho Ab) (antibody, human IgG1, kappa)
heavy: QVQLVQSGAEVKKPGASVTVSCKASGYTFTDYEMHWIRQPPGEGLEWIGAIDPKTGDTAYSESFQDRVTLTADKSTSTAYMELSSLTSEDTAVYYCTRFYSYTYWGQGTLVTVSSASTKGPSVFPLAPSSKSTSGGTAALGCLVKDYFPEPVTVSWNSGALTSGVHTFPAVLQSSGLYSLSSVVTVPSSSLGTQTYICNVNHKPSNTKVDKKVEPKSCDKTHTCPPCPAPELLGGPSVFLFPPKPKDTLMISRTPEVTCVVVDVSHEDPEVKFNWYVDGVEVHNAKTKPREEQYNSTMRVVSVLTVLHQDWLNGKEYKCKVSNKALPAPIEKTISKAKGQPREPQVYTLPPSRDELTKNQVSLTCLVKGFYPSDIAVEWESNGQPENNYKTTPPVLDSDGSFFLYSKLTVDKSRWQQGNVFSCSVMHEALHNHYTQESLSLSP
light: B1 light
notes: Anti-glypican-3 IgG1 (G1d with K439E); the alteration stands in both H chains; EU numbering; also called Y300_06M Ho Ab; Y300M in both H chains
- Ho/Con_2aH [4]: 106 relative binding activity (control homodimerized antibody GpH7-B3/GpL16-k0 = 100)

B17: GpH7-A5/GpH7-B3 variant K326_04F/GpL16-k0 (antibody, human IgG1, kappa)
heavy 1: not shown
heavy 2: not shown
light: B1 light
notes: as for B1
- He/Con_2b [1]: 155 % of HeCon Ab (=100)
- He/Con_2aH [2]: 97 % of HeCon Ab (=100)
- He_2aH/2b (IIaH/IIb) [3]: 0.63 ratio

B18: GpH7-A5/GpH7-B3 variant T335_08L/GpL16-k0 (heterodimerized antibody, He Ab) (antibody, human IgG1, kappa)
heavy 1: not shown
heavy 2: not shown
light: B1 light
notes: Anti-glypican-3 IgG1 heterodimer; the alteration stands in one H chain only; EU numbering; also called T335_08L He Ab; T335L in one H chain
- He/Con_2aH [4]: 106 relative binding activity (control heterodimerized antibody GpH7-A5/GpH7-B3/GpL16-k0 = 100)

B19: GpH7-A5/GpH7-B3 variant N325_03V/GpL16-k0 (antibody, human IgG1, kappa)
heavy 1: not shown
heavy 2: not shown
light: B1 light
notes: as for B1
- He/Con_2b [1]: 111 % of HeCon Ab (=100)
- He/Con_2aH [2]: 45.2 % of HeCon Ab (=100)
- He_2aH/2b (IIaH/IIb) [3]: 0.41 ratio

Reference: US20150344570A1 (published 2015)
